The values that follow come from US20240270846A1 (published 2024).

In the assay the target is T1, CD3 epsilon homodimer protein (UniProt P07766 23-126).
T1 construct: Construct of the homodimer is not described; also called CD3 (CD3 epsilon)
In words: SPR Biacore T200, CD3e homodimer on chip, antibody analyte. (In SPR one partner is held on a chip, and binding of the other changes the refractive index at the surface.)

Where a chain is given by its changes, count along the chain named. Names and notes keep the numbering of the source.
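Also: CD3 epsilon homodimer amine-coupled on CM4 sensor chip, antibodies injected as analyte at 25 °C in HBS-EP+, ratio ≥0.8 taken as binding retained versus unaltered parent antibody.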

T1 sequence (P07766 23-126): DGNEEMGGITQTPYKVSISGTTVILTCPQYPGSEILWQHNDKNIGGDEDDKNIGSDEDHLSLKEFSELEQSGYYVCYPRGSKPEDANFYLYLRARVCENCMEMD

B1: GLS3000 S56W one-arm antibody (antibody, human IgG1, kappa, L234A L235A, N297A, name in Kabat numbering)
light: DIVMTQSPLSLPVTPGEPASISCRSSQSLVHSNRNTYLHWYQQKPGQAPRLLIYKVSNRFWGVPDRFSGSGSGTDFTLKISRVEAEDVGVYYCGQGTQVPYTFGQGTKLEIKRTVAAPSVFIFPPSDEQLKSGTASVVCLLNNFYPREAKVQWKVDNALQSGNSQESVTEQDSKDSTYSLSSTLTLSKADYEKHKVYACEVTHQGLSSPVTKSFNRGEC
heavy: QVQLVESGGGVVQPGRSLRLSCAASGFTFSNAWMHWVRQAPGKGLEWVAQIKAKSNNYATYYAESVKGRFTISRDDSKNSLYLQMNSLKTEDTAVYYCRYVHYGAYYGVDAWGQGTTVTVSSASTKGPSVFPLAPSSKSTSGGTAALGCLVKDYFPEPVTVSWNSGALTSGVHTFPAVLQSSGLYSLSSVVTVPSSSLGTQTYICNVNHKPSNTKVDKKVEPKSCDKTHTCPPCPAPEAAGGPSVFLFPPKPKDTLMISRTPEVTCVVVDVSHEDPEVKFNWYVDGVEVHNAKTKPREEQYASTYRVVSVLTVLHQDWLNGKEYKCKVSNKALPAPIEKTISKAKGQPREPQVYTLPPSRCELTKNQVSLSCAVKGFYPSDIAVEWESNGQPENNYKTTPPVLDSDGSFFLVSKLTVDKSRWQQGNVFSCSVMHEALHNHYTQKSLSLSPDYKDDDDK
chain: EPKSSDKTHTCPPCPAPELLGGPSVFLFPPKPKDTLMISRTPEVTCVVVDVSHEDPEVKFNWYVDGVEVHNAKTKPREEQYNSTYRVVSVLTVLHQDWLNGKEYKCKVSNKALPAPIEKTISKAKGQPREPQVCTLPPSRDELTKNQVSLWCLVKGFYPSDIAVEWESNGQPENNYKTTPPVLDSDGSFFLYSKLTVDKSRWQQGNVFSCSVMHEALHNRYTQKSLSLSP
On to B1, for which the “ratio of amounts bound (altered form/GLS3000)” value was 1.38.

B2: GLS3000 V94P one-arm antibody (antibody, human IgG1, kappa, L234A L235A, N297A, name in Kabat numbering)
light: B1 light with W61S, V99P
heavy: B1 heavy
chain: B1 chain
B2: the “ratio of amounts bound (altered form/GLS3000)” value amounted to 1.26.

B3: GLS3000 V94I one-arm antibody (antibody, human IgG1, kappa, L234A L235A, N297A, name in Kabat numbering)
light: B1 light with W61S, V99I
heavy: B1 heavy
chain: B1 chain
For B3, the “ratio of amounts bound (altered form/GLS3000)” value stood at 0.66.

B4: GLS3000 V94Q one-arm antibody (antibody, human IgG1, kappa, L234A L235A, N297A, name in Kabat numbering)
light: B1 light with W61S, V99Q
heavy: B1 heavy
chain: B1 chain
As to B4, the “ratio of amounts bound (altered form/GLS3000)” value is 0.76.

B5: GLS3000 V94L one-arm antibody (antibody, human IgG1, kappa, L234A L235A, N297A, name in Kabat numbering)
light: B1 light with W61S, V99L
heavy: B1 heavy
chain: B1 chain
For B5, the “ratio of amounts bound (altered form/GLS3000)” value is 0.44.

B6: GLS3000 V51I one-arm antibody (antibody, human IgG1, kappa, L234A L235A, N297A, name in Kabat numbering)
light: B1 light with V56I, W61S
heavy: B1 heavy
chain: B1 chain
For the molecule B6, the “ratio of amounts bound (altered form/GLS3000)” value is 0.81.

B7: GLS3000 S56Y one-arm antibody (antibody, human IgG1, kappa, L234A L235A, N297A, name in Kabat numbering)
light: B1 light with W61Y
heavy: B1 heavy
chain: B1 chain
Turning to B7, the “ratio of amounts bound (altered form/GLS3000)” value was 1.46.

B8: GLS3000 T92A one-arm antibody (antibody, human IgG1, kappa, L234A L235A, N297A, name in Kabat numbering)
light: B1 light with W61S, T97A
heavy: B1 heavy
chain: B1 chain
With B8, the “ratio of amounts bound (altered form/GLS3000)” value was found to be 0.63.

B9: GLS3000 T92S one-arm antibody (antibody, human IgG1, kappa, L234A L235A, N297A, name in Kabat numbering)
light: B1 light with W61S, T97S
heavy: B1 heavy
chain: B1 chain
Regarding B9, the “ratio of amounts bound (altered form/GLS3000)” value is 0.96.

B10: GLS3000 T97P one-arm antibody (antibody, human IgG1, kappa, L234A L235A, N297A, name in Kabat numbering)
light: B1 light with W61S, T102P
heavy: B1 heavy
chain: B1 chain
Consider B10, for which the “ratio of amounts bound (altered form/GLS3000)” value is 0.31.

B11: GLS3000 T92I one-arm antibody (antibody, human IgG1, kappa, L234A L235A, N297A, name in Kabat numbering)
light: B1 light with W61S, T97I
heavy: B1 heavy
chain: B1 chain
On to B11, for which the “ratio of amounts bound (altered form/GLS3000)” value was determined as 0.34.

B12: GLS3000 T92D one-arm antibody (antibody, human IgG1, kappa, L234A L235A, N297A, name in Kabat numbering)
light: B1 light with W61S, T97D
heavy: B1 heavy
chain: B1 chain
Consider B12, for which the “ratio of amounts bound (altered form/GLS3000)” value worked out at 0.18.

B13: GLS3000 V94F one-arm antibody (antibody, human IgG1, kappa, L234A L235A, N297A, name in Kabat numbering)
light: B1 light with W61S, V99F
heavy: B1 heavy
chain: B1 chain
For the molecule B13, the “ratio of amounts bound (altered form/GLS3000)” value is 0.71.

B14: GLS3000 T31E one-arm antibody (antibody, human IgG1, kappa, L234A L235A, N297A, name in Kabat numbering)
light: B1 light with T36E, W61S
heavy: B1 heavy
chain: B1 chain
Turning to B14, the “ratio of amounts bound (altered form/GLS3000)” value worked out at 0.49.

B15: GLS3000 V94N one-arm antibody (antibody, human IgG1, kappa, L234A L235A, N297A, name in Kabat numbering)
light: B1 light with W61S, V99N
heavy: B1 heavy
chain: B1 chain
Consider B15, for which the “ratio of amounts bound (altered form/GLS3000)” value amounted to 1.05.

B16: GLS3000 T31N one-arm antibody (antibody, human IgG1, kappa, L234A L235A, N297A, name in Kabat numbering)
light: B1 light with T36N, W61S
heavy: B1 heavy
chain: B1 chain
For the molecule B16, the “ratio of amounts bound (altered form/GLS3000)” value came to 0.32.

B17: GLS3000 V94H one-arm antibody (antibody, human IgG1, kappa, L234A L235A, N297A, name in Kabat numbering)
light: B1 light with W61S, V99H
heavy: B1 heavy
chain: B1 chain
For the molecule B17, the “ratio of amounts bound (altered form/GLS3000)” value came out at 0.78.

B18: GLS3000 V94M one-arm antibody (antibody, human IgG1, kappa, L234A L235A, N297A, name in Kabat numbering)
light: B1 light with W61S, V99M
heavy: B1 heavy
chain: B1 chain
On to B18, for which the “ratio of amounts bound (altered form/GLS3000)” value stood at 0.44.

B19: GLS3000 T31K one-arm antibody (antibody, human IgG1, kappa, L234A L235A, N297A, name in Kabat numbering)
light: B1 light with T36K, W61S
heavy: B1 heavy
chain: B1 chain
Regarding B19, the “ratio of amounts bound (altered form/GLS3000)” value amounted to 1.04.

B20: GLS3000 V51P one-arm antibody (antibody, human IgG1, kappa, L234A L235A, N297A, name in Kabat numbering)
light: B1 light with V56P, W61S
heavy: B1 heavy
chain: B1 chain
For the molecule B20, the “ratio of amounts bound (altered form/GLS3000)” value was found to be 0.32.

B21: GLS3000 V94R one-arm antibody (antibody, human IgG1, kappa, L234A L235A, N297A, name in Kabat numbering)
light: B1 light with W61S, V99R
heavy: B1 heavy
chain: B1 chain
Regarding B21, the “ratio of amounts bound (altered form/GLS3000)” value is 0.66.

B22: GLS3000 V51E one-arm antibody (antibody, human IgG1, kappa, L234A L235A, N297A, name in Kabat numbering)
light: B1 light with V56E, W61S
heavy: B1 heavy
chain: B1 chain
With B22, the “ratio of amounts bound (altered form/GLS3000)” value came out at 0.64.

B23: GLS3000 V94K one-arm antibody (antibody, human IgG1, kappa, L234A L235A, N297A, name in Kabat numbering)
light: B1 light with W61S, V99K
heavy: B1 heavy
chain: B1 chain
Turning to B23, the “ratio of amounts bound (altered form/GLS3000)” value was determined as 0.57.

B24: GLS3000 V94E one-arm antibody (antibody, human IgG1, kappa, L234A L235A, N297A, name in Kabat numbering)
light: B1 light with W61S, V99E
heavy: B1 heavy
chain: B1 chain
As for B24, the “ratio of amounts bound (altered form/GLS3000)” value was found to be 0.5.

B25: GLS3000 T31I one-arm antibody (antibody, human IgG1, kappa, L234A L235A, N297A, name in Kabat numbering)
light: B1 light with T36I, W61S
heavy: B1 heavy
chain: B1 chain
In the case of B25, the “ratio of amounts bound (altered form/GLS3000)” value is 0.97.

B26: GLS3000 T31P one-arm antibody (antibody, human IgG1, kappa, L234A L235A, N297A, name in Kabat numbering)
light: B1 light with T36P, W61S
heavy: B1 heavy
chain: B1 chain
Turning to B26, the “ratio of amounts bound (altered form/GLS3000)” value is 0.31.

B27: GLS3000 T92E one-arm antibody (antibody, human IgG1, kappa, L234A L235A, N297A, name in Kabat numbering)
light: B1 light with W61S, T97E
heavy: B1 heavy
chain: B1 chain
As to B27, the “ratio of amounts bound (altered form/GLS3000)” value was 0.17.

B28: GLS3000 V94G one-arm antibody (antibody, human IgG1, kappa, L234A L235A, N297A, name in Kabat numbering)
light: B1 light with W61S, V99G
heavy: B1 heavy
chain: B1 chain
Turning to B28, the “ratio of amounts bound (altered form/GLS3000)” value was 0.48.

B29: GLS3000 V51G one-arm antibody (antibody, human IgG1, kappa, L234A L235A, N297A, name in Kabat numbering)
light: B1 light with V56G, W61S
heavy: B1 heavy
chain: B1 chain
In the case of B29, the “ratio of amounts bound (altered form/GLS3000)” value was determined as 0.84.

B30: GLS3000 V94D one-arm antibody (antibody, human IgG1, kappa, L234A L235A, N297A, name in Kabat numbering)
light: B1 light with W61S, V99D
heavy: B1 heavy
chain: B1 chain
In the case of B30, the “ratio of amounts bound (altered form/GLS3000)” value stood at 0.89.

B31: GLS3000 T92P one-arm antibody (antibody, human IgG1, kappa, L234A L235A, N297A, name in Kabat numbering)
light: B1 light with W61S, T97P
heavy: B1 heavy
chain: B1 chain
Turning to B31, the “ratio of amounts bound (altered form/GLS3000)” value worked out at 0.26.

B32: GLS3000 T92L one-arm antibody (antibody, human IgG1, kappa, L234A L235A, N297A, name in Kabat numbering)
light: B1 light with W61S, T97L
heavy: B1 heavy
chain: B1 chain
Regarding B32, the “ratio of amounts bound (altered form/GLS3000)” value was 0.42.
